Consider two molecules from patent publication US20120071394A1 (ALLIGATOR BIOSCIENCE, published 2012).

The target in the test is T1, Wild-type CHIPS1-121 (Chemotaxis Inhibitory Protein of Staphylococcus aureus) (Staphylococcus aureus, UniProt A6QIG7 29-149).
T1 construct: His tag cleaved off with enterokinase; also called CHIPSWT
Kind of test: flow cytometry of gated blood neutrophils after iv CHIPS, stained with rabbit anti-CHIPS IgG and FITC goat anti-rabbit; the staining does not separate C5aR-bound from FPR-bound CHIPS.

B1: formylated peptide receptor (FPR) (receptor)
chain: METNSSLPTNISGGTPAVSAGYLFLDIITYLVFAVTFVLGVLGNGLVIWVAGFRMTHTVTTISYLNLAVADFCFTSTLPFFMVRKAMGGHWPFGWFLCKFVFTIVDINLFGSVFLIALIALDRCVCVLHPVWTQNHRTVSLAKKVIIGPWVMALLLTLPVIIRVTTVPGKTGTVACTFNFSPWTNDPKERINVAVAMLTVRGIIRFIIGFSAPMSIVAVSYGLIATKIHKQGLIKSSRPLRVLSFVAAAFFLCWSPYQVVALIATVRIRELLQGMYKEIGIAVDVTSALAFFNSCLNPMLYVFMGQDFRERLIHALPASLERALTEDSTQTSDTATNSTLPSAEVELQAK
notes: whole, on cells
In the case of B1, the binding result is given as “binds”.

B2: human C5a receptor (C5aR) (receptor)
chain: MDSFNYTTPDYGHYDDKDTLDLNTPVDKTSNTLRVPDILALVIFAVVFLVGVLGNALVVWVTAFEAKRTINAIWFLNLAVADFLSCLALPILFTSIVQHHHWPFGGAACSILPSLILLNMYASILLLATISADRFLLVFKPIWCQNFRGAGLAWIACAVAWGLALLLTIPSFLYRVVREEYFPPKVLCGVDYSHDKRRERAVAIVRLVLGFLWPLLTLTICYTFILLRTWSRRATRSTKTLKVVVAVVASFFIFWLPYQVTGIMMSFLEPSSPTFLLLKKLDSLCVSFAYINCCINPIIYVVAGQGFQGRLRKSLPSLLRNVLTEESVVRESKSFTRSTVDTMAQKTQAV
notes: whole, on cells; also called CD88
For the molecule B2, the binding result is “binds”.
